Tests used:
[1] = target: T1, Id2 (Homo sapiens, UniProt Q02363); assay: Coimmunoprecipitation of Id2 and Flag-tagged ENH in transfected Cos-1 cells; type: binding; settings: Cos-1 cells transfected with Id2 and Flag-tagged ENH
T1 construct: expressed in transfected cells; host or cells: Cos-1
T1 sequence (Q02363 1-134): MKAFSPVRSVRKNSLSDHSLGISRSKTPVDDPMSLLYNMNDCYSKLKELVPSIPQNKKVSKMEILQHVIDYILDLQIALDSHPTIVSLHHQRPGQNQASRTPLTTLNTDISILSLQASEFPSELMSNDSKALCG
Procedure: (§1) GST Pull-Down Assay, Western Blot, and Coimmunoprecipitation: GST fusion proteins were purified from BL21 Star (Invitrogen). GST pull-down assay was performed as described in lavarone, A. et al., (1994), Genes Dev., 8:1270-1284. For Wetern blot analysis, cellular pellets were lysed in ice-cold RIPA buffer (50 mM Tris, pH 7.5/150 mM NaCl/1% Nonidet P-40/0.5% sodium deoxycholate/0.1% SDS) containing Complete Mini protease inhibitor pellet (Roche) and 1 mM PMSF. Lysates were electrophoresed on SDS/PAGE gels and transferred to nitrocellulose membrane (Amersham Pharmacia Biotech). Membranes were stained with antibodies against ENH, Id2 (Santa Cruz Biotechnology), and α-tubulin (Sigma), and blots were developed by using ECLWestem Blotting Detection System (Amersham Pharmacia Biotech). The anti-ENH antibody is a rabbit polyclonal that was produced in collaboration with Zymed against a peptide that is fully conserved in the mouse sequence (KQQNGPPRKHI (SEQ ID NO:1)). Coimmunoprecipitation of Id2 and ENH from cells transfected with pcDNA.3-Id2 and p3XFlag-ENH was performed as described (lavarone, A. et al., (2004), Nature, 432:1040-1045).
To determine whether Id2 binds ENH in vivo, coimmunoprecipitation experiments were performed after transfecting Id2 and Flag-tagged ENH in Cos-1. Anti-Id2 antibodies precipitated full-length Flag-ENH but not Flag-ENHδLIM (FIG. 2C). […]

[2] = system: GST-δHLHId2; assay: GST pull-down assay with GST-Id2 lacking the HLH domain; type: binding; settings: in vitro-translated 35S-labeled ENH (FIG. 2B Right)
Procedure: as §1
(§2) To validate the specificity of the binding between ENH and Id2 and identify the domains that mediate this interaction, GST fusion proteins and in vitro-translated proteins in pull-down assays.

[3] = target: T2, GST-Id3 (Homo sapiens, UniProt Q02535); assay: GST pull-down assay with GST-Id3; type: binding; settings: in vitro-translated 35S-labeled ENH (FIG. 2B Right)
T2 construct: made in house; host or cells: E. coli BL21 Star (Invitrogen)
T2 sequence (Q02535 1-119): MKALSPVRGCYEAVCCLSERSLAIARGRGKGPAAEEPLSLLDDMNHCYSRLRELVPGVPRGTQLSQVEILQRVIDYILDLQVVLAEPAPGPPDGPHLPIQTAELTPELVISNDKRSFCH
Procedure: as §1
Given the high homology among the HLH domains of the three Id proteins, it was asked whether Id1 and Id3 could also bind ENH in this assay. Indeed, both GST-Id1 and GST-Id3 bound to full-length ENH (FIG. 2B Right).

[4] = system: SK-N-SH cells; assay: BrdU incorporation study; type: cell-based, human; settings: BrdU 6 h and 14 h
Procedure: BrdU Incorporation Study: SK-N-SH cells were plated in Lab-Tek Chamber Slides (Nalge Nunc Intl.). Cells were transfected with plasmids expressing the empty vector, Id2, ENH, or both and an EGFP expression vector to identify transfected cells. After 24 h, cells were labeled with 10 μM BrdU for 6 h and 14 h, fixed, and stained with anti-BrdU antibody (Roche) for 1 h at room temperature. Secondary antibody was donkey anti-mouse, Cy3-conjugated (Jackson hnmunoResearch). Nuclei were counterstained with DAPI. Cells were examined on an Olympus epifluorescence microscope. BrdU-positive cells were scored by counting at least 500 GFP-positive cells in three independent experiments.
(§3) A well known function of Id2 is the ability to enhance cell proliferation by promoting the transition from G1 to S phase of the cell cycle. Therefore, it was asked whether ENH inhibited cell proliferation and opposed Id2-mediated entry into S phase. […] Next SK-N-SH was transfected with ENH and Id2 in the presence of a GFP expression plasmid and measured the rate of DNA synthesis by incorporation of BrdU of the successfully transfected, GFP-positive cells.

[5] = system: SF188 glioma cell line; assay: Colony-forming assay; type: cell-based, human; settings: transfected with pcDNA3-ENH, G418 selection 14 days
Excerpt: (§4) Cell Culture, Colony-Forming Assay, and Transfection: Neuroblastoma cell lines SK-N-SH, IMR-32, and LAN-1, the glioma cell lines SF188, and COS-1 cells were maintained in 10% FBS (Sigma) in DMEM (Cambrex). For colony-forming assay cells were transfected with pcDNA3-ENH or vector control. Cells were selected in G418 for 14 days, and colonies were scored in triplicate cultures. Cells were transfected by using Lipofectamine 2000 according to the manufacturer's instructions.
as §3

[6] = system: SK-N-SH neuroblastoma cell line; assay: Colony-forming assay; type: cell-based, human; settings: transfected with pcDNA3-ENH, G418 selection 14 days
Excerpt: as §4, §3

[7] = system: IMR-32 neuroblastoma cell line; assay: Colony-forming assay; type: cell-based, human; settings: transfected with pcDNA3-ENH, G418 selection 14 days
Excerpt: as §4, §3

[8] = target: T3, GST-Id2 (Homo sapiens, UniProt Q02363); assay: GST pull-down assay with GST-Id2; type: binding; settings: in vitro-translated 35S-labeled proteins, autoradiography (FIG. 2B)
T3 construct: made in house; host or cells: E. coli BL21 Star (Invitrogen)
T3 sequence (Q02363 1-134): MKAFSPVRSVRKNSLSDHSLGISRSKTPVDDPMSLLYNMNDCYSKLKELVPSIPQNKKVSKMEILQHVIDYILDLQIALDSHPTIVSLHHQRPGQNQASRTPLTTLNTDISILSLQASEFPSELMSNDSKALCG
Procedure: as §1, §2

B1: ENH: actin cytoskeleton-associated PDZ-LIM protein ENH (Enigma Homologue), full-length, SEQ ID NO:4; also used Flag-tagged (protein, listed as Homo sapiens)
chain: MSNYSVSLVGPAPWGFRLQGGKDFNMPLTISSLKDGGKAAQANVRIGDVVLSIDGINAQGMTHLEAQNKIKGCTGSLNMTLQRASAAPKPEPVPVQKGEPKEVVKPVPITSPAVSKVTSTNNMAYNKAPRPFGSVSSPKVTSIPSPSSAFTPAHATTSSHASPSPVAAVTPPLFAASGLHANANLSADQSPSALSAGKTAVNVPRQPTVTSVCSETSQELAEGQRRGSQGDSKQQNGPPRKHIVERYTEFYHVPTHSDASKKRLIEDTEDWRPRTGTTQSRSFRILAQITGTEHLKESEADNTKKANNSQEPSPQLASSVASTRSMPESLDSPTSGRPGVTSLTTAAAFKPVGSTGVIKSPSWQRPNQGVPSTGRISNSATYSGSVAPANSALGQTQPSDQDTLVQRAEHIPAGKRTPMCAHCNQVIRGPFLVALGKSWHPEEFNCAHCKNTMAYIGFVEEKGALYCELCYEKFFAPECGRCQRKILGEVINALKQTWHVSCFVCVACGKPIRNNVFHLEDGEPYCETDYYALFGTICHGCEFPIEAGDMFLEALGYTWHDTCFVCSVCCESLEGQTFFSKKDKPLCKKHAHSVNF
[1]; Western blot for Flag (FIG. 2C)
  precipitation by anti-Id2 antibodies: precipitated
[1]; Western blot for Id2 (FIG. 2D)
  Id2 in Flag immunoprecipitates: contained Id2
[2]
  binding of GST-δHLHId2 to ENH: failed to bind
[3]
  binding of GST-Id3 to ENH: bound
[4]; ENH and Id2 cotransfected
  Id2-mediated stimulation of DNA synthesis: abrogated
[4]; ectopic ENH
  S phase entry (BrdU incorporation of GFP-positive cells): strongly inhibited
[5]
  colony formation: markedly inhibited
[6]
  colony formation: markedly inhibited
[7]
  colony formation: markedly inhibited
[8]
  binding of GST-Id2 to ENH constructs: bound efficiently

Source: patent US20070041944A1, “Treating tumors by ENH dislocation of ID proteins” (THE TRUSTEES OF COLUMBIA UNIVERSITY IN THE CITY OF NEW YORK, priority 2005, published 2007)
